Test [1] addresses integrin αvβ3 on chick embryo sternal chondrocytes (chick) (UniProt P26008). As to the kind of experiment: cell-based or functional assay.
Test [2] concerns the target latent TGF-β1 released by human OA cartilage explants (human) (UniProt P01137). As to the kind of experiment: cell-based or functional assay.

latent TGF-β1 released by human OA cartilage explants (human), sequence (P01137 30-390 limits assumed): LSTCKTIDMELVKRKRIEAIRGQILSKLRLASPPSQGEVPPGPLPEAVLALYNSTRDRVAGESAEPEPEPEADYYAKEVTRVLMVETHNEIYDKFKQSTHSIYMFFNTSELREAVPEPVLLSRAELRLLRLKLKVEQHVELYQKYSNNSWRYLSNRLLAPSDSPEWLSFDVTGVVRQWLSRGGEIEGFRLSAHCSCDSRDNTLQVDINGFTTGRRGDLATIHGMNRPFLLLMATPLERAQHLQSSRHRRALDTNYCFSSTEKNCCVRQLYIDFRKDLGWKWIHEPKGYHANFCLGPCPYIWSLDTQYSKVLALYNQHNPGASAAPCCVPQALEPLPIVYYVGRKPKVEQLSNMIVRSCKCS
integrin αvβ3 on chick embryo sternal chondrocytes (chick), sequence (P26008 20-1034): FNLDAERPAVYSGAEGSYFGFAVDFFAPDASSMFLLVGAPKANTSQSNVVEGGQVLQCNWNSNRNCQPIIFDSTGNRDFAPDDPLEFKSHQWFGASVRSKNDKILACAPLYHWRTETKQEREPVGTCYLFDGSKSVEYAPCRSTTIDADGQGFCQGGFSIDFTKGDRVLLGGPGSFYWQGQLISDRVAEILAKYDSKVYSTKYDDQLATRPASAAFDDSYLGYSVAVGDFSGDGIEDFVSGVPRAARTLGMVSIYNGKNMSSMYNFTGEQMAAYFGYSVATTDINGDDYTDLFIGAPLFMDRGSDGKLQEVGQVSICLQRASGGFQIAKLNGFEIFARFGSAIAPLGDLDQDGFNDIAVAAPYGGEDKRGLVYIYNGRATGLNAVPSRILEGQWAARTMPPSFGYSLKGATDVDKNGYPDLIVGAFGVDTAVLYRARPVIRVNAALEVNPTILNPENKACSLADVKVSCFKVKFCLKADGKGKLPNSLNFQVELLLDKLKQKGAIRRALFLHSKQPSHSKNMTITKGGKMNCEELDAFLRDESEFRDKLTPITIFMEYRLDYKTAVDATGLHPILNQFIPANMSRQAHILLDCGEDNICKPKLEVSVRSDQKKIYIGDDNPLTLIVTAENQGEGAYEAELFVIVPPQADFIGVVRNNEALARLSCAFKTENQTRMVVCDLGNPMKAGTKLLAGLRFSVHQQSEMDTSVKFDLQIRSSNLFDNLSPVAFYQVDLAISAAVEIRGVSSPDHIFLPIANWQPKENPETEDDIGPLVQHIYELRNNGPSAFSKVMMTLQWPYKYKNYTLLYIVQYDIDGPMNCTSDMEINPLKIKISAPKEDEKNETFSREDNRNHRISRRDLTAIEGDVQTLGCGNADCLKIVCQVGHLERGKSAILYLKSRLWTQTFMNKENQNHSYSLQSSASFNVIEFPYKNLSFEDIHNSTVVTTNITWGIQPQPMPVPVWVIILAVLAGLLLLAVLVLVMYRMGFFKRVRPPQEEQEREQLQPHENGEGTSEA

On to “LM609, integrin αvβ3 blocking antibody (Chemicon International, Cat No MAB1976Z)”, for which the decrease in AP activity of F-spondin transfected, RA stimulated chick chondrocytes in test [1] came to 50%.

For “recombinant human F-spondin (R&D systems) (from UniProt Q9HCB6 29-807) (ligand)”, in test [2], the active TGF-β1 in OA cartilage explant supernatants (ELISA) amounted to 225% and the active TGF-β1 in OA cartilage explant supernatants (ELISA) (pg/g cartilage) is 550.

Values taken from patent US20100015129A1.
